From patent US20260250410A1 (SICHUAN HUIYU PHARMACEUTICAL, published 2026) come the findings set out here.

Assay [1] concerns the target T1, human CDCP1 on tumor cells (human, UniProt Q9H5V8 30-836).
T1 construct: whole, on cells; cell line is named under assay or readout
T1 sequence (looked up): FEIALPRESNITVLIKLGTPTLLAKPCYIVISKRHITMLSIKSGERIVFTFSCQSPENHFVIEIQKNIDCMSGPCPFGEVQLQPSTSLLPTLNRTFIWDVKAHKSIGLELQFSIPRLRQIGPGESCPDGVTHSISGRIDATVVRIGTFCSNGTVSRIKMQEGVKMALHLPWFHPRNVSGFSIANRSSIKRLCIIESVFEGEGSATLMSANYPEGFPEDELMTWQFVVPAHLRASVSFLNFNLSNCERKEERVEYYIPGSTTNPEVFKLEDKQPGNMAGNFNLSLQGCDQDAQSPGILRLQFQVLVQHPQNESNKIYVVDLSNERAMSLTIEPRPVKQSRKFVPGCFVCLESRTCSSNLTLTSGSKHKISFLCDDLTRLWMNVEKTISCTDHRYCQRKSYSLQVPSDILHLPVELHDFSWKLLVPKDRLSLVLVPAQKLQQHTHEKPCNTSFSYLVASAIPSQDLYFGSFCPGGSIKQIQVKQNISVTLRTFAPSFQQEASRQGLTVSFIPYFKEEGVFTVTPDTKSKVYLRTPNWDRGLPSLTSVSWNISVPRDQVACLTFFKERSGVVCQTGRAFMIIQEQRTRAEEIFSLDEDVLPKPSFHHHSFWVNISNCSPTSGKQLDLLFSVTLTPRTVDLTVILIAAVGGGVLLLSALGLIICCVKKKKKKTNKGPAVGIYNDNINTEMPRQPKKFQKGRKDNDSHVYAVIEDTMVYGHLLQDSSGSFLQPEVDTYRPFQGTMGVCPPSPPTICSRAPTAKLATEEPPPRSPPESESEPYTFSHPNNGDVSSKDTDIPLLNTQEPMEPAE
In words: flow cytometry, PC3 cells. The protocol: Flow cytometry was used to detect the binding capacity of antibody to tumor cells. […] 2.0×10⁴ tumor cells were added per well, respectively, and 50 μL (PBS+2% FBS) were added, and after blocking at room temperature with an Fe blocker (Human TruStain FcX™, Biolegend, 422302) for 10 mins, an anti-CDCP1 murine monoclonal antibody at a final concentration of 200 nM was added. The obtained mixture was subjected to a 3-fold serial dilution across 8 concentration points, and incubated at 4° C. for 30 mins, and then incubated with a secondary antibody (PE anti-human IgG Fc Antibody, Biolegend, 410708), detection was performed using a flow cytometer.

A further assay addresses T2, CynoCDCP1 (Macaca fascicularis, UniProt A0A2K5VLA8 30-667).
T2 construct: extracellular domain; also called Macaca fascicularis CDCP1; monkey CDCP1; not shown: Fc or his tag
T2 sequence: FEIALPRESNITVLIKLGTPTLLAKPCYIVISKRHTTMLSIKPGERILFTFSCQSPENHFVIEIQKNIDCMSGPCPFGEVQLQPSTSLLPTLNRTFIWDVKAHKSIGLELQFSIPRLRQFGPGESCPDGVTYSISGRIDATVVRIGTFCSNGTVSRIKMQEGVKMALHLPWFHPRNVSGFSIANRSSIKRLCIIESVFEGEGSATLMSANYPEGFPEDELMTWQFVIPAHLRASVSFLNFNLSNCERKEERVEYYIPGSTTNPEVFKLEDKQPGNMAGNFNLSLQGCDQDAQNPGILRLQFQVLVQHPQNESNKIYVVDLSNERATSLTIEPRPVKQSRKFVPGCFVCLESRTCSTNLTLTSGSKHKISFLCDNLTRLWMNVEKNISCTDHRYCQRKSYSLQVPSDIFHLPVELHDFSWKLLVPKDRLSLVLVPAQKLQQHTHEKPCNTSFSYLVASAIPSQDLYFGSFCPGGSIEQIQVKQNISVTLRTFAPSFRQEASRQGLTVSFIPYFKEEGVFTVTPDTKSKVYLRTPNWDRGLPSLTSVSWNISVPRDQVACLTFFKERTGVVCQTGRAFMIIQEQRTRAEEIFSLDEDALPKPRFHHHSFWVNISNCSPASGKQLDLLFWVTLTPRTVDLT
In words: SPR (Caterra), antigen immobilized. The protocol:
(§1) The humanized anti-CDCP1 antibodies obtained from Example 11 were subjected to gene cloning, constructed into pTT5 expression vector for a small amount of expression in CHO cells (Expi-CHOS: Gibco A29127), and purified with an Fc affinity column (AT Protein A Diamond Plus. No. AA402312). Antibody purity was analyzed by HPLC and determined by Nanodrop. High-throughput affinity assay was carried out for a small amount of antibodies by Caterra.
(§2) Further, Partial anti-CDCP1 humanized antibodies were selected for expression, and then the affinity of the antibodies to the antigens Hu-CDCP1-A, Hu-CDCP1-B, Cyno-CDCP1, and Ms-CDCP1 was detected according to the above affinity detection method.

The target in a further assay is T3, HuCDCP1-B (human, UniProt Q9H5V8 343-667).
T3 construct: range 343-667; expressed in HEK-293T, purified by Fc/his tag; also called human CDCP1-B; membrane-proximal region of CDCP1; not shown: Fc or his tag
T3 sequence (looked up): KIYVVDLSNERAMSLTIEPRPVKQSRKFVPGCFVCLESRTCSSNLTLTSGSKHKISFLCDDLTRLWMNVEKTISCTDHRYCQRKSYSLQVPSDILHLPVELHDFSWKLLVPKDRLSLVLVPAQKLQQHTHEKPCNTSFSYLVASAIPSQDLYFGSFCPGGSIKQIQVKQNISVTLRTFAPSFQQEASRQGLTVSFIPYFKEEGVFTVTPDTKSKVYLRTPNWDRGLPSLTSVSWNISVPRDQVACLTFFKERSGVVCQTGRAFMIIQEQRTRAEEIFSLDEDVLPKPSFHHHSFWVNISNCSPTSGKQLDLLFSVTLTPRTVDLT
In words: SPR (Caterra), antigen immobilized. The method, then:
as §1, §2

B1: 5B8 (antibody, V domains shown)
VH: EVQLKESGGGLVQPGGSLRISCATSGLTFTHYHMSWVRQPPGKAPEWLAIIRNKAYGYTTDYSASVRGRFTISRDDSQSILYLQMNTLRAEDSATYYCVREGGYGYDGTFAYWGQGTTVTVSS
VL: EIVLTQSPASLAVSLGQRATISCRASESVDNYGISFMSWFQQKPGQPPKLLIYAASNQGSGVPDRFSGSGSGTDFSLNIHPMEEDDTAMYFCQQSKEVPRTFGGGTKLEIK
notes: murine hybridoma mAb
Turning to B1, the EC50 in assay [1] amounted to 0.91 nM.

B2: 8C9 (antibody, V domains shown)
VH: EVQLKESGGGLVQPGGSLRISCATSGLTFTHYHMSWVRQPPGKAPEWLAIIRNKAYGYTTDYSASVRGRFTISRDDSQSILYLQMNTLRPEDSATYYCVREGGYGYDGTFAYWGQGTTVTVSS
VL: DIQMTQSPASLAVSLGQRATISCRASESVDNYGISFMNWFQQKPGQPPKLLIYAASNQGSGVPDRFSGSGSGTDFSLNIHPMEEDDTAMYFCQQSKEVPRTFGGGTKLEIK
notes: murine hybridoma mAb
On to B2, for which, in assay [1], the EC50 amounted to 0.4 nM.

B3: 8E5 (antibody, V domains shown)
VH: EVQLKESGPELKKPGETVKISCKASGYTLTDFSMHWLKQAPGKGLKWMGWINTETGAPTYADDFKGRFALSLDTSANTAYLQINNLKNEDTATYFCSRGRDYDPHFDYWGQGTTVTVSS
VL: EIVLTQSPATLSVTPGDRVSLSCRASQSISDFLHWYQQRSHESPRLLIKYASQSISGIPSRFGGSGSGSDFTLNINTVEPEDVGMYYCQSAHSFPYTFGGGTKLEIK
notes: murine hybridoma mAb; also called 8ES
With B3, a half-maximal effect in assay [1] (EC50) was put at 0.63 nM.

B4: 6A7 (antibody, V domains shown)
VH: EVQLKESGAELVRPGASVKVSCKASGYSFTSYWMNWVKQRPGQGLEWIGMIHPSDSETKLNQKFRDRASLTVDKSSSTAYMQLSSPTSEDSAVYYCTINYESFYYAMDYWGQGTTVTVSS
VL: DIVMTQSPASLAVSLGQRATISCRASKSVSTSGYSYMHWYQQKPGQPPKLLLYLASNLESGVPARFSGSGSGADFTLNIHPVEEEDAATYYCLHSRELPYTFGGGTKLEIK
notes: murine hybridoma mAb
Take B4: in assay [1], the midpoint of the response, the EC50, lay at 1.35 nM.

B5: 1CP-124 (antibody, human IgG1, kappa, V domains shown)
VH: QVQLVQSGAEVKKPGASVKVSCKASGYNFISYWLHWVRQAPGQGLEWMGGIYPGNTDTTYNQKFKGRVTMTRDTSTSTVYMELSSLRSEDTAVYYCIRYDYDRGMDYWGQGTLVTVSS
VL: DIQMTQSPSSLSASVGDRVTITCRASEDIYYRLAWYQQKPGKAPKLLISGATALETGVPSRFSGSGSGKDYTFTISSLQPEDIATYYCQHYWNIPWTFGQGTKVEIKR
notes: humanized 3C11, human IgG1 kappa
For B5, the Kd came to 24.2 nM with CynoCDCP1 and 100 nM with HuCDCP1-B.

B6: 1CP-125 (antibody, human IgG1, kappa, V domains shown)
VH: QVQLVQSGAEVKKPGASVKVSCKASGYNFISYWLHWVRQAPGQGLEWMGGIYPGNTDTTYNQKFKGRVTMTADTSTSTVYMELSSLRSEDTAVYYCIRYDYDRGMDYWGQGTLVTVSS
VL: DIQMTQSPSSLSASVGDRVTITCRASEDIYYRLAWYQQKPGKAPKLLISGATALETGVPSRFSGSGSGKDYTFTISSLQPEDIATYYCQHYWNIPWTFGQGTKVEIKR
notes: as for B5
With B6, the Kd with CynoCDCP1 is 2.27 nM; with HuCDCP1-B, 55.1 nM.

B7: 10D2 (antibody, V domains shown)
VH: EVQLQQSGPELKKPGETVKISCKASGYTFTDYSMHWVKQAPGKGLKWMGWINTETGQPTYADDFKGRFAFSLETSASSAYLQINNLKNEDTATYFCTRTFYYDYVGDYWGQGTTVTVSS
VL: DIVMTQSHKFMSTSVGDRVSITCKASQDVSTAVAWYRQKPGQSPKLLIYWASTRHTGVPDRLTGSGSGTDFALTINSVQAEDLALYYCQQHSSTPYTFGGGTKLEIK
notes: murine hybridoma mAb
Molecule B7 returned an EC50 in assay [1] of 2.54 nM. This lies in the single-digit nanomolar range.

B8: 1CP-117 (antibody, human IgG1, kappa, V domains shown)
VH: QVQLVQSGSELKKPGASVKVSCKASGYTLTDFSMHWVRQAPGQGLEWMGWINTETGAPTYADDFKGRFVLSLDTSVSTAYLQISSLKAEDTAVYYCSRGRDYDPHFDYWGQGTLVTVSS
VL: EIVLTQSPATLSLSPGERATLSCRASQSISDFLHWYQQKPGQSPRLLIKYASQSISGIPARFSGSGSGSDFTLTISSVEPEDFAVYYCQSAHSFPYTFGQGTKLEIKR
notes: humanized 8E5, human IgG1 kappa
On to B8, for which the Kd in the assay with CynoCDCP1 amounted to 1.84 nM; in the assay with HuCDCP1-B, 182 nM.

B9: 1CP-121 (antibody, human IgG1, kappa, V domains shown)
VH: QVQLVQSGSELKKPGASVKVSCKASGYTLTDFSMHWVRQAPGQGLEWMGWINTETGAPTYADDFKGRFVLSLDTSVSTAYLQISSLKAEDTAVYYCSRGRDYDPHFDYWGQGTLVTVSS
VL: EIVLTQSPATLSLSPGERATLSCRASQSISDFLHWYQQKSGQSPRLLIKYASQSISGIPARFSGSGSGSDFTLTISSVEPEDFAVYYCQSAHSFPYTFGQGTKLEIKR
notes: as for B8
Consider B9, for which the Kd was found to be 1.51 nM with CynoCDCP1 and 131 nM with HuCDCP1-B.

B10: G10F6 (antibody, V domains shown)
VH: EVKLVESGPGILQPSQTLSLTCSFSGFSLSTSGMGVSWVRQPSGKGLEWLAHIYWDDDKRYNPSLKGRLTISKDTPRNQVFLEITSVDTTDTATYYCARVPGNWDEDAMDYWGQGTTVTVSS
VL: DIQMTQSPLSLPVSLGDQASISCRSSQNIVHTNGNTYLEWYLQKVGQSPKLLIYKVSNRFSGVPDRFSGSGSGTDFTLKISRVEAEDLGVYYCFQGSHVPYTFGGGTKLEIK
notes: murine hybridoma mAb
Turning to B10, the EC50 in assay [1] is 0.23 nM.

B11: 14A10C5 (antibody, V domains shown)
VH: EVKLVESGPGILQPSQTLSLTCSFSGFSLSTSGMGVSWIRQPSGKGLEWLAHIYWDDEKRYNPSLKSRLTISKDTSSNQVFLKITSVDTADTATYYCAREGSANWEAMDYWGQGTTVTVSS
VL: DIVMTQAALSLPVSLGDQASISCRSSQNIVYTNGITYLEWYLQKPGQSPKLLIYKVSNRFSGVPDRFSGSGSATDFTLKISRVEAEDLGVYYCFQSSHVPWTFGGGTKLEIK
notes: murine hybridoma mAb; also called 14A10CS
B11: a half-maximal response in assay [1] (EC50) required 0.1 nM.

B12: 3B12H5 (antibody, V domains shown)
VH: EVQLQQSGTVLARPGASVKMSCKASGYSFTIYWVHWVKQRPGQGLEWIGAVYPGNDDTSYNQNFKGKAKLTAVTSATTAYMELSSLTIDDSAVYYCTRHTYDEVFDYWGQGTTVTVSS
VL: DIVMTQSPSSLSVSLGDRVTITCKASEDIYYRLAWYQQKPGNAPRLLISGGTNLEAGIPSRFSGSGSGKDYTLSITSLQTEDVAIYYCQHYWNTPWTFGGGTKLEIK
notes: murine hybridoma mAb; also called 3B12HS
B12 showed an EC50 in assay [1] of 0.55 nM.

B13: 3F1A11 (antibody, V domains shown)
VH: EVKLVESGPGLVKPSQSLSLTCTVTGYSITSDYAWNWIRQFPGNKLEWMGYISYNTYTSYNPSLKSRISVTRDTSKNQFFLQLKSVTIEDTATYFCAGGDYYGTGAVDYWGQGTTVTVSS
VL: EIVLTQSPLSLPVSLGDQASISCRSRQTLVHTNGNTYLDWYLQKPGQSPKLLIYKVSIRFSGVPDRFSGSRSGTDFTLKISRVEAEDLGIYYCFQGSHVPWTFGGGTKLEIK
notes: murine hybridoma mAb
B13 displayed an EC50 in assay [1] of 0.41 nM.
